Results published in patent US10087225B2, “Formulation of MK2 inhibitor peptides” (MOERAE MATRIX, INC., priority 2015, dated 2018).

How the values were obtained:
Test in all cases: Kinase Profiling Assay
Format in all cases: biochemical
NLK(h) = biological target: T1, NLK(h) (Homo sapiens, UniProt Q9UBE8)
T1 sequence (Q9UBE8 1-527): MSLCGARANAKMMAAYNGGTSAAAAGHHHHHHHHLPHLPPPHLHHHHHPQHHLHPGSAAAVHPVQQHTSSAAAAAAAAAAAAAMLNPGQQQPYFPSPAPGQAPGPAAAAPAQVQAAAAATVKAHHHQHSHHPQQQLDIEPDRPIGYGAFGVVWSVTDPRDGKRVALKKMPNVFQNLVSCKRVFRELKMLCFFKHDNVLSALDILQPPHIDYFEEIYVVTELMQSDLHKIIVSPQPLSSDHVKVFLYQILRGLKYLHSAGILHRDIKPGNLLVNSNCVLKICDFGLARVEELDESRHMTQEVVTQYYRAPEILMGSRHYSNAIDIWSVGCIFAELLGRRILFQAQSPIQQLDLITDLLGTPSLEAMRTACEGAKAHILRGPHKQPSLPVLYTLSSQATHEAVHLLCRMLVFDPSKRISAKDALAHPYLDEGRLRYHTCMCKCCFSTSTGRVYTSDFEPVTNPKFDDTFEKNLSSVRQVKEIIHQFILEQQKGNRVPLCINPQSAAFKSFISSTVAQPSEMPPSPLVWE

Fms(Y969C)(h) = Fms(Y969C)(h) (Homo sapiens, UniProt P07333, Y969C)
TAO3(h) = biological target: T2, TAO3(h) (Homo sapiens, UniProt Q9H2K8)
T2 sequence (Q9H2K8 1-898): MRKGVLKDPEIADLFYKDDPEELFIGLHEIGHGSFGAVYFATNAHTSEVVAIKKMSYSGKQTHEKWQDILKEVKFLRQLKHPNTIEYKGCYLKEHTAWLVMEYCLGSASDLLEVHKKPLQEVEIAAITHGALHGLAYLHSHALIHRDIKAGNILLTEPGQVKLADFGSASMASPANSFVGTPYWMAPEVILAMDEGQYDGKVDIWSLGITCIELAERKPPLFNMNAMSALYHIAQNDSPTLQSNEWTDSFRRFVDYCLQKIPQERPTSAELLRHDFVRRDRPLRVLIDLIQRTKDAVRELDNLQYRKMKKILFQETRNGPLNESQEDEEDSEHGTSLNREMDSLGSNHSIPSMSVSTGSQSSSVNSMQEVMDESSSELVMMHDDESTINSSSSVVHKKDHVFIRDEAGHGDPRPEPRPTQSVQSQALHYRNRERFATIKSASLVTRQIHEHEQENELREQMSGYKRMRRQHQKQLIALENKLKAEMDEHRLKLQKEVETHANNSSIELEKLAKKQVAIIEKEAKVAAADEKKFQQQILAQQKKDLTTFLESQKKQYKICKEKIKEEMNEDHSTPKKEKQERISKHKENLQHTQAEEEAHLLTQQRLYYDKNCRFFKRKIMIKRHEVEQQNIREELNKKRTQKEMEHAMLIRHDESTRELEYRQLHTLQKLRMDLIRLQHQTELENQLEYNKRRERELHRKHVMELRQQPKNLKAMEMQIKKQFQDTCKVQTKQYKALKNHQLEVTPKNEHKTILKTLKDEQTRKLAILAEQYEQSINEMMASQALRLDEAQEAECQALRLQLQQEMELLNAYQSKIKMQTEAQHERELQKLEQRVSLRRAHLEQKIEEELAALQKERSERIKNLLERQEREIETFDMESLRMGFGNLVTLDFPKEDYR

Fes(h) = Fes(h) (Homo sapiens, UniProt P07332); conditions: 100 μM
Sequence of Fes(h) (P07332 whole entry): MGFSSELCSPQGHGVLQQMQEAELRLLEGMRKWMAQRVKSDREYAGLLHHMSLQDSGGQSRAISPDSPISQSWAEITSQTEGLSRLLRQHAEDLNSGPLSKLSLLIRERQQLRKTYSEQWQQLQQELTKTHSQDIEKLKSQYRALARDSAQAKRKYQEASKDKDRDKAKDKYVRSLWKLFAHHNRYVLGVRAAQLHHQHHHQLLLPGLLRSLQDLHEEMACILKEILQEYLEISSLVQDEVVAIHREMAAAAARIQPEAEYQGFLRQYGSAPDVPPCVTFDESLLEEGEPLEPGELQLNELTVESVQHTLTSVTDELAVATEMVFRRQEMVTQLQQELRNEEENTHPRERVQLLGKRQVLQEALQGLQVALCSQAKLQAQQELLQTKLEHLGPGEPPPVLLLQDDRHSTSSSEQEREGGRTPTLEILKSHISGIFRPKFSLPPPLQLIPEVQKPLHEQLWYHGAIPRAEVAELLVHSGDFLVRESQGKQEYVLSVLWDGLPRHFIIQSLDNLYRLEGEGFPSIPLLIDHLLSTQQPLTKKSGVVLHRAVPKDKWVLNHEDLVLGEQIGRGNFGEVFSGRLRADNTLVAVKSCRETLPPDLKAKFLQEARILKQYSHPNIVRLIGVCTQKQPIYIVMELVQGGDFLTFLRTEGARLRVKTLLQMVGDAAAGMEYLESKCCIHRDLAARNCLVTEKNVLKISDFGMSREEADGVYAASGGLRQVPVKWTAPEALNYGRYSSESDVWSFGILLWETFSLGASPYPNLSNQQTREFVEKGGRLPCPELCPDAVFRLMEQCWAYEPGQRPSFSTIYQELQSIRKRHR

ACK1(h) = ACK1(h) (Homo sapiens, UniProt Q07912); conditions: 100 μM
Sequence of ACK1(h) (Q07912 whole entry): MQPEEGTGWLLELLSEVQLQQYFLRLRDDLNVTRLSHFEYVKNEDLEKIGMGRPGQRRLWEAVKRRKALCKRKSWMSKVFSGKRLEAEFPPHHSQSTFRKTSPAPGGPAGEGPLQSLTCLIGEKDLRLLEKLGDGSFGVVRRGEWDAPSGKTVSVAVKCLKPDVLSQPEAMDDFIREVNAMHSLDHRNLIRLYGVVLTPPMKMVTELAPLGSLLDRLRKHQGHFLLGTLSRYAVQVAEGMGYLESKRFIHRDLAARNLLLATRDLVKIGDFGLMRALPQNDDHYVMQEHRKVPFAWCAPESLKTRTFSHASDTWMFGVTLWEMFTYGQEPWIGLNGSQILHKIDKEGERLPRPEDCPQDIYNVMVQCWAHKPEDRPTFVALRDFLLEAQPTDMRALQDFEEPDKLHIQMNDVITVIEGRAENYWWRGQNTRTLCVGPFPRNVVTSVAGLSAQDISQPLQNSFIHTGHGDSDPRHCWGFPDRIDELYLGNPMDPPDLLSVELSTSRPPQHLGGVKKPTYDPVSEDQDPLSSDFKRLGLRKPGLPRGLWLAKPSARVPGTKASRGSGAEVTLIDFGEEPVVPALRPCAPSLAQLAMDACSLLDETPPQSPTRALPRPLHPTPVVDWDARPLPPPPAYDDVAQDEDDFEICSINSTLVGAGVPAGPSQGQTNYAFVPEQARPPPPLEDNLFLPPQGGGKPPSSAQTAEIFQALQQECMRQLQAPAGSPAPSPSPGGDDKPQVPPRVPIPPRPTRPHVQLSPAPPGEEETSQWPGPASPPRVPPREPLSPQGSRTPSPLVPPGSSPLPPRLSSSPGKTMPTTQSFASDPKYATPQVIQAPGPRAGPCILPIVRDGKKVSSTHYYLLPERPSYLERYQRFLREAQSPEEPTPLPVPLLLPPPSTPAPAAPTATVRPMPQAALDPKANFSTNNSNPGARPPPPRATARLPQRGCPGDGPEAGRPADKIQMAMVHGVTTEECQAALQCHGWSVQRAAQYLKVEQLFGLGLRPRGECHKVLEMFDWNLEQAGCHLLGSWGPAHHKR

PDK1(h) = biological target: T3, PDK1(h) (Homo sapiens, UniProt O15530); conditions: 100 μM
T3 sequence (O15530 1-556): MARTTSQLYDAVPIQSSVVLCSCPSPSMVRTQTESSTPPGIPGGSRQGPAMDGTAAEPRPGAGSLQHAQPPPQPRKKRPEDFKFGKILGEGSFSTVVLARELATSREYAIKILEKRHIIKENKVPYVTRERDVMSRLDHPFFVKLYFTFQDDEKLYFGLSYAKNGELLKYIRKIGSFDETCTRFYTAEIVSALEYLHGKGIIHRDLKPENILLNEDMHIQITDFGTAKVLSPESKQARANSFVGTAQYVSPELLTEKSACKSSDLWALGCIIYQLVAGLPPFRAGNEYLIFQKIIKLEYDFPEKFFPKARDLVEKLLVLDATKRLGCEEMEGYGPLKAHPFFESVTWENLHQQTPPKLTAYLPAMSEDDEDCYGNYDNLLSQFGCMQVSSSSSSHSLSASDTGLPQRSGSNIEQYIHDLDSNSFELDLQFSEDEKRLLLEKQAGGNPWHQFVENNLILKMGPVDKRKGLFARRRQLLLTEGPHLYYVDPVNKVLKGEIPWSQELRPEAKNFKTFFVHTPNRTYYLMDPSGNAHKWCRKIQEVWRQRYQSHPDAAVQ

CaMKIV(h) = biological target: T4, CaMKIV(h) (Homo sapiens, UniProt Q16566); conditions: 100 μM
T4 sequence (Q16566 1-473): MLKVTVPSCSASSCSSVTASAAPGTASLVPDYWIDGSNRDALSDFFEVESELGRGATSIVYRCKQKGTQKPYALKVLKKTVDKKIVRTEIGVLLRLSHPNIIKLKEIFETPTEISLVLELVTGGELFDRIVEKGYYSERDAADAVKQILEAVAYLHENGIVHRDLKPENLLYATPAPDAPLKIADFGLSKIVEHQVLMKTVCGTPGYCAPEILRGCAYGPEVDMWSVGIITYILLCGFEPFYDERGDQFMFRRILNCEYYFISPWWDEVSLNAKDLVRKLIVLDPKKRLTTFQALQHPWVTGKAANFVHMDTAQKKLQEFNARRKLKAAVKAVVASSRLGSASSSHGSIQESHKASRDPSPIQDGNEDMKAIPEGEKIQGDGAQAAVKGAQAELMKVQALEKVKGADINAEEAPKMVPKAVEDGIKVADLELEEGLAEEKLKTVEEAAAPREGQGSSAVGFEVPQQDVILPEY

ROCK-II(h) = ROCK-II(h) (Homo sapiens, UniProt O75116); conditions: 100 μM
Sequence of ROCK-II(h) (O75116 whole entry): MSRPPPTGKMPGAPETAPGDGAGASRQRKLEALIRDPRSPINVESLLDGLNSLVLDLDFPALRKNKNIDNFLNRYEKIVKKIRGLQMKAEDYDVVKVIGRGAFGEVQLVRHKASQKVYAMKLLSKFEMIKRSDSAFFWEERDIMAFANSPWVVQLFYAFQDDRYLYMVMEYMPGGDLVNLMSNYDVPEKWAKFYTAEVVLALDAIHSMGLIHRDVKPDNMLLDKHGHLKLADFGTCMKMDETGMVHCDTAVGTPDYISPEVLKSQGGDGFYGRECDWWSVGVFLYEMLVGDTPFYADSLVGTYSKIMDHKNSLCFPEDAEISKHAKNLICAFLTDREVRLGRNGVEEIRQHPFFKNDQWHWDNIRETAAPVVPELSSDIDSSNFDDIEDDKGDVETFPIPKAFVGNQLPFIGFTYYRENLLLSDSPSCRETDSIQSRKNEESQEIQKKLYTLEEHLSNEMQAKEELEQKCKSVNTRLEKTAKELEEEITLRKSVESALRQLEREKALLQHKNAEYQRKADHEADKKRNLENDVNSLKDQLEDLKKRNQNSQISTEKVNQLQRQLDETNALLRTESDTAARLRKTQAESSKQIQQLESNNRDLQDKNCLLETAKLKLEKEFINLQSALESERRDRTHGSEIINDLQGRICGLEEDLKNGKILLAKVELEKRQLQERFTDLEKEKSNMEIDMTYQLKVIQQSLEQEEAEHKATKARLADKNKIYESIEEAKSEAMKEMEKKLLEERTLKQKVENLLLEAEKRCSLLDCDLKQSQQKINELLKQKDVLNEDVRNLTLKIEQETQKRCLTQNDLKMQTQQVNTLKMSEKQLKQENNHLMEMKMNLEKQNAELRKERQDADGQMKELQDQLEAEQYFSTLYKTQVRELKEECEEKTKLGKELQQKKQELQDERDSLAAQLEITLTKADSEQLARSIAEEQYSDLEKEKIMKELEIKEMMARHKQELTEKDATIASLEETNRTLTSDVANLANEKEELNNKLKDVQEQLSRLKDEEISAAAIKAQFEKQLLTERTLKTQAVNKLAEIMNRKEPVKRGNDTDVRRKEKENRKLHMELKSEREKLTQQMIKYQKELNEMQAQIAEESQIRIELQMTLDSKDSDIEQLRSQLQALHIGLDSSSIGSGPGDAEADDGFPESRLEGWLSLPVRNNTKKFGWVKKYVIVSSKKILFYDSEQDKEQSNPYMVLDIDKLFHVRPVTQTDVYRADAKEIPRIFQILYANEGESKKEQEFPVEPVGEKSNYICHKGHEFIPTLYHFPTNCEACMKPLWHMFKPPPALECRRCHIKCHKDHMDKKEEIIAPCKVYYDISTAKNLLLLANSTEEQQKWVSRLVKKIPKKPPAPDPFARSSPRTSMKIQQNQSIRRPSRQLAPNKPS

Met(D1246N)(h) = Met(D1246N)(h) (Homo sapiens, UniProt P08581, D1228N); conditions: 100 μM
cKit(D816V)(h) = cKit(D816V)(h) (Homo sapiens, UniProt P10721, D816V); conditions: 100 μM
Ron(h) = Ron(h) (Homo sapiens, UniProt Q04912); conditions: 100 μM

Substance	activity at 100 µM (NLK(h))	activity at 100 µM (Fms(Y969C)(h))	activity at 100 µM (TAO3(h))	% activity (Fes(h))	% activity (ACK1(h))	% activity (PDK1(h))	% activity (CaMKIV(h))	% activity (ROCK-II(h))	% activity (Met(D1246N)(h))	% activity (cKit(D816V)(h))	% activity (Fms(Y969C)(h); 100 μM)	% activity (Ron(h))	% activity (NLK(h); 100 μM)	% activity (TAO3(h); 100 μM)
H-YARAAARQARAKALARQLGVAA-OH [MMI-0100]	100%	126%	45%	–	–	–	–	–	–	–	–	–	–	–
YARAAARQARAKALNRQLGVA (Mammalian) [MMI-0200]	–	–	–	74%	97%	143%	71%	85%	149%	118%	88%	120%	–	–
HRRIKAWLKKIKALARQLGVAA (Mammalian) [MMI-0500]	–	–	–	23%	64%	178%	-1%	2%	90%	30%	–	46%	19%	12%
